test: soluble on expression in E. coli; label from the status in PepcDB or PDB records

Soluble on expression in E. coli, not soluble:
MQGKDNYQEQQEINSTDEEGMIFQLADTTIQACNAAAERIIGYKNEQILGKTPFKPPWQIVHEDGTIFTPETVPPIVALQTGKPCKNVVMGLYQPTGQLVWLLLNSQPLFQTNKSTPYAVVTTFTDFTKVKCRQSRSDACITNNKKLIVTWNQDQAVEISPNTDKQKLNQPVAEPISDDCTKAFLSMQNHILELIATGNSLSEILEKLAQSIEAQLAEVFCSIMLLNDTGTKLYPGVSSSLPEKYIQELKNGVPVGADVGSCGTSAYTKQTVIVSDIASDHKWVKYRDLTLTNNLKACWSTPILDSQGHVLGTFALYYPTVRIPQKSDLQLIERASHLAGVAIERQRWQLALQQSEYQLRLMTETIPQQVWTAQPNGLVDYYNQRWCDFTGKTQEQLKTESWEQIIHPEDLPKVEELWAKAVQTGSDYEVETRMLSGSGEYHWILGQARPLRNQQGQIVKWYGTNTDITDHIQAREALRESELNFRTLADTMPQMIWTAKGDGWLEYCNQRWLDYTGMTLEETQGWGWQPVLHPDDAQICIDIWSESVRTGQNYQIEYRLRRARDGQYRWHLGRAFPLRNQKGQIIKWFGSCTDIDDHKRSEEALRNALQEKQAAYEAAETANRVKDEFLAILSHELRTPLNPILGWSQLLKTGKLDKDKTDEALKSIERNAKLQVDLIDDLLDVSRILRGKLTLNVTTVNLADIISAALETMSLAASVKQIAVQTLIEPNIGKVRGDPARLQQIVWNLLSNAIKFTPQGGEVVVQLEQIGSMAHIIVSDQGKGINRKFLPHIFEHFRQEDGSTTRKFGGLGLGLAIVRHLVELHGGTVEADSPGEGQGTTLKVILPLISSLPVTVTNGQFEDVALSLKGIKILVVDDDVDSLAFVKVVLELYEATVTTAASAPEALQIGVQLKPDVLISDIGMPEMDGYELLRRMRALSSDLGGDIPAVSKAIPKAIALTAFAGELDEQQAMAAGFQIHIPKPVEPEALAAAVAQVLKINV
MGSDKIHHHHHHMIKITQVRDGGNHVTQSTLTLDAWVERMKEEVKTCPVTMFRSQLRHVLPGDHCEAADKLPKMMPAAEFRKTEGGQCMKAYNGLVELTVGPLAGRAEVEQVKREAWKLPQTRCAFMGASGHSVKILVAFTRPDNTLPLTRAEAEAFHAHAYIMAVKCYQPQLSFDIRPKEPFLEQYSRLSYDPDVLYRPDSVQFYLSQPMGMPDEMALHTEPAVSGQRPLERALGSYETADALSMLFEAALRQAYIDLDKPDPADEKSSYSWDTLLSQLALNCFRSGIPEEAVVSRARFRHFVRKPLELVRQVVRNVYSRRQDFGSKCALSREQQLSVLIAEFMKRRYEFRFNVQTGEAEFRERHSFCFRFQPVDKRALNSIALDAQAEGIPLWDRDISRYVYSNRVPVYNPLEDFLFNLPEWDGRDRIRPLAQTVPCDNPHWPELFHRWFLNMVAHWRGMDKRYANSVSPLLVGAQGTRKSTLFDFLKLYLA
MKNIVSAFGIIPRNNRLMYIHSYQSYVWNTMVSRRIEEYGLRPVPGDLVLKGATPTYIEEDDVDNYSIHDVVMPLPGFDVIYPKHKISEAYREMLAADNLDIDNMRHTIRDYSLSGAYRRIIIRPQSVSWEVVAYDDPKIPLFNTDVDNLEGKPPPVFASEGKYRALKMDFSLPPSTYATMAIREVLKMDTSIKNQTQLNTSWLR
NNMHHLAVVGARDSTSYTQQSLEFLLSNDKSKYLTIVSGLAQGADAMAHQIALKYNLPTIAVLAFGHQTHYPKSTLALRNKIEEKGLVISEYPPHTPIAKYRFPERNRIISGLSKGVLITEAKEQSGSHITIDFALEQNRNVYVLPGSMFNPMTKGNLLRIQEGAKVVLNANDIFEDYYI
MNQLVCPLCCETLKEEGAHFYKHFKYKRYACGESTCDMGFYTQQELNAHCSKHGHKRSFQKTVNPYIDKMISVVVEDAYALATDDMETVLEKRWGRDPRSVSPTSPVKKTPTDSAKNKRSSVVTPTSPPVPKKAKSGTSTTSPFAFLNRRTNNSESSLCPNASSTSAQPASSSSAQAIVDSTTSEHNISIDKTKKPRKKRNESMTAAQNQEKAGKNANYDEMSAIDKLIGWFDPNVPERRDAAKVKCAVCNEEIVYDFILRKGHVTRSHMAADVAPEDYDDLLKTAMDRSYPDLPNSDLACQLCMTGAEVRKNMRREHIEKLHTTSLPPLTCPVGECEKGFRRQCDLSSHMKDTHKASMAVYKNATFQQVRRRRNAMINEMINKCFPWSRLEAIENKTVVGEKSDSVNRAPVDRSFDTDVRVRDVNKTRRAPQYNANRSSSSDSDSEHEEAASVATGEVSETGGTDDFPQDVIYICHQFNTEVAQKLSQIVRIKPEIIDVEDVLMNDVTMEINEIPVKEETEEEQPKEENNSTLPSIPIPSIFSPYEPIVPPPATSPDPMNPPIASLLPTRILSATNVLENKYNENVSSRRSTSRERSSNRNYDERWSRNDYSNPRNYSNRSFHQRNQRGHSSSNRFNSPFVSRNNYNNNSETTEGSSRRSEYNSSSSNHHSRSSYRGNRDDRGSRW
MKNIKMPVLVLAAEKDHITPPESVTAFFEKIPSKDKKLLLSDKGHIGLTVSGSSHRKIWPEAIKWVVERSK
MSQQHDYVIGKNAVIETLKSDRKLYKLWMAENTVKGQAQQVIELAKKQGITIQYVPRKKLDQMVTGQHQGVVAQVAAYEYAELDDLYKAAEEKNEQPFFLILDELEDPHNLGSIMRTADAVGAHGIVIPKRRAVGLTTTVAKASTGAIEHIPVARVTNLARTLEEMKERGIWVVGTDASAREDFRNMDGNMPLALVIGSEGKGMGRLVKEKCDFLIKLPMAGKVTSLNASVAAGLLMYEVYRKRNPVGE

Soluble on expression in E. coli, soluble:
GSHMLETEDVVRARDAHLRSILDTVPDATVVSATDGTIVSFNAAAVRQFGYAEEEVIGQNLRILMPEPYRHEHDGYLQRYMATGEKRIIGIDRVVSGQRKDGSTFPMKLAVGEMRSGGERFFTGFIRDLT
GMAINIIEYNRSYKEELIEFILSIQKNEFNIKIDRDDQPDLENIEHNYLNSGGQFWLAINNHQNIVGTIGLIRLDNNMSALKKMFVDKGYRNLKIGKKLLDKVIMTCKEQNIDGIYLGTIDKFISAQYFYSNNGFREIKRGDLPSSFPKLDVDNRFYYRNLKD
MAKGTKYVSKVPDEHGFIEWSTEENLIWQELFTRQIACIKDKACDEYHEGLAKLNLPTDRIPQLDEVSKVLKVSTGWECYPVPALIGFGEFFRLLSEKKFPVATFIRSREEMDYLQEPDIFHEIFGHCPLLTNSSFANYTEAYGKMGLNATKEQRVFLARLYWFTIEFGLLDTPKGLRIYGGGVLSSPGETDYAMNNTDVDRKPFDILDVLRTPYRIDIMQPIYYMLTKVSDLDEIRKFEVDDIMELVAQAEALGLHEAKFPVKKASLEHHHHHH
MSLELKYKIGFPSLYYPKISLADRIDAAAEKFGEKTAIISAEPKFPSEFPESMNFLEICEVTKKLASGISRKGVRKGEHVGVCIPNSIDYVMTIYALWRVAATPVPINPMYKSFELEHILNDSEATTLVVHSMLYENFKPVLEKTGVERVFVVGGEVNSLSEVMDSGSEDFENVKVNPEEDVALIPYTGGTTGMPKGVMLTHFNLAANALQLAVATGLSHMDTIVGCMPMFHSAEFGLVNLMVTVGNEYVVMGMFNQEMLAENIEKYKGTFSWAVPPALNVLVNTLESSNKTYDWSYLKVFATGAWPVAPALVEKLLKLAAEKCNNPRLRHNQIWGMTEACPMVTTNPPLRLDKSTTQGVPMSDIELKVISLEDGRELGVGESGEIVIRGPNIFKGYWKREKENQECWWYDEKGRKFFRTGDVGFIDEEGFLHFQDRVKEVIKYKGYTIAPFELEALLMKHEAVMDVAVIGKPDEEAGEVPKAFIVLKPEYRGKVDEEDIIEWVRERISGYKRVREVEFVEELPRTASGKLLRRLLREKEAEGHHHHHH
MKAYKLLTTASIGALMLGMSTAAYSDNWRYAHEEYEGDVQDVFAQAFKGYVEDNSDHTVQVYRFGELGESDDIMEQTQNGILQFVNQSPGFTGSLIPSAQIFFIPYLMPTDMDTVLEFFDESKAINEMFPKLYAEHGLELLKMYPEGEMVVTADEPITSPEDFDNKKIRTMTNPLLAETYKAFGATPTPLPWGEVYGGLQTGIIDGQENPIFWIESGGLYEVSPNLTFTSHGWFTTAMMANQDFYEGLSEEDQQLVQDAADAAYDHTIEHIKGLSEESLEKIKAASDEVTVTRLNDEQIQAFKERAPQVEEKFIEMTGEQGQELLDQFKADLKAVQSESEG

From the DeepSol protein solubility set
